Data taken from patent US6913892 (H LUNDBECK A S, dated 2005).
Where two headings read alike, the source gives them in different places. Where no end group is shown, it is not given here.

B1: human neuropeptide Y (peptide)
peptide: not shown
modifications: C-terminal amide
B2: porcine PYY13-36 (peptide, UniProt P68005 13-36, looked up)
peptide: SPEELSRYYASLRHYLNLVTRQRY-NH2
notes: range 13-36; also called PYY13-36, porcine
B3: Phe-Met-Arg-Phe-Amide (peptide)
peptide: FMRF-NH2
notes: Tetrapeptide invertebrate neurotransmitter; also called FMRF-amide; FMRFamide
B4: human peptide YY (peptide)
peptide: not shown
modifications: C-terminal amide
notes: mature; also called human PYY; PYY, human

Assays:
human Y1 receptor [1] = target: T1, human Y1 receptor (human, UniProt P25929 1-384); assay: 125I-PYY displacement, COS-7 membranes
T1 construct: Transiently expressed in COS-7 cells; membranes used; also called cloned human Y1 receptor (Larhammar et al., 1992)
T1 sequence: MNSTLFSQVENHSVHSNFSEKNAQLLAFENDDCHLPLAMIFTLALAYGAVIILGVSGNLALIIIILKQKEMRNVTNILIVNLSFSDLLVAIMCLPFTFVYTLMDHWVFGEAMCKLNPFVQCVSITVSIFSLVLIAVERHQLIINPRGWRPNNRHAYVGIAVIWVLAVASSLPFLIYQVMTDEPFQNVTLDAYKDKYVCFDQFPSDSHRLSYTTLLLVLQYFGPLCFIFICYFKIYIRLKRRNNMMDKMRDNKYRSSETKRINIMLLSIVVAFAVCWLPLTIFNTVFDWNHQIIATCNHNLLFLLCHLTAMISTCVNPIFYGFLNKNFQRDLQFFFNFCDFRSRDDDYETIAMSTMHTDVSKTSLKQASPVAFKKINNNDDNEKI
Method: (§1) Radioligand Binding to Membrane Suspensions: Membrane suspensions were diluted in binding buffer supplemented with 0.1% bovine serum albumin and 0.1% bacitracin to yield an optimal membrane protein concentration: ~0.02 mg/ml for human Y1 receptors, ~0.015 mg/ml for hp25a receptors, and ~0.25 mg/ml for SK-N-Be(2). […] Incubations were terminated by filtration over Whatman GF/C filters (pre-coated with 0.5% polyethyleneimine and air-dried before use). […] Binding data were analyzed using nonlinear regression and statistical techniques available in the GraphPAD InPlot package (San Diego, Calif.). […] Whatman GF/C filters were from Brandel (Gaithersburg, Md.). Bio-Rad Reagent was from Bio-Rad (Hercules, Calif.). Bovine serum albumin and bacitracin were from Sigma (St. Louis, Mo.). All other materials were reagent grade.

human Y4 receptor [2] = target: T2, human Y4 receptor (human, UniProt P0DQD5 1-375); assay: 125I-PYY displacement, COS-7 membranes
T2 construct: also called hp25a; hp25a receptor
T2 sequence (P0DQD5 whole entry): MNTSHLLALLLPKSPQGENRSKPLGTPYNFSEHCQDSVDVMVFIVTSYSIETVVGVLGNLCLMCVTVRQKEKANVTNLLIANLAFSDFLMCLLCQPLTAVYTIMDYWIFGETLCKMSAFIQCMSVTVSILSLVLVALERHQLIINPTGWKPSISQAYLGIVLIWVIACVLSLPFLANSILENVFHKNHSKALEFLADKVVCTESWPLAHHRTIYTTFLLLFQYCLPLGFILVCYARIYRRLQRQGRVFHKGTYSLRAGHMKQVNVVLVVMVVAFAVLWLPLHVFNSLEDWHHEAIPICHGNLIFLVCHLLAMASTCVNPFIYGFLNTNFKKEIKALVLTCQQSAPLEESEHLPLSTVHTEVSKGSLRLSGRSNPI
Method: as §1

rat Y4 receptor = target: T3, rat Y4 receptor (rat, UniProt Q63447 1-375); assay: 125I-PYY displacement, COS-7 membranes
T3 construct: Full-length receptor (375 aa) transiently expressed in COS-7 cells; membranes used; also called rs16b; rat Y4 homolog
T3 sequence (Q63447 whole entry R262P): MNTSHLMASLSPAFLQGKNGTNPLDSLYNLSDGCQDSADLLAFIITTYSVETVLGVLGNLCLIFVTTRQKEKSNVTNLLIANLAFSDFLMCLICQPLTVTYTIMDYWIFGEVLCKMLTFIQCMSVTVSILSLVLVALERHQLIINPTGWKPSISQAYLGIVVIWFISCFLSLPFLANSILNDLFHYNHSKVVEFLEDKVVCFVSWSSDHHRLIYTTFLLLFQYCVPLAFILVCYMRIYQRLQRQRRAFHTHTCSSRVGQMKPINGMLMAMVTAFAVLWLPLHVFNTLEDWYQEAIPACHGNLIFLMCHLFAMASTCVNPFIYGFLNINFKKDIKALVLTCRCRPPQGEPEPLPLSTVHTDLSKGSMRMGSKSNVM

human Y4 receptor [3] = target: T2, human Y4 receptor; assay: 125I-PYY displacement, COS-7 membranes; remark: listed apart in the source
human Y4 receptor [4] = target: T2, human Y4 receptor; assay: cell-based or functional assay
human Y4 receptor [5] = target: T2, human Y4 receptor; assay: 125I-PYY displacement, COS-7 membranes (as in Table 3)
Method: as §1

human Y4 receptor [6] = target: T2, human Y4 receptor; assay: 125I-PYY displacement, COS-7 membranes; remark: listed apart in the source
Method: (§2) Data are representative of at least two independent experiments, with each point measured once or in duplicate.
(§3) Radioligand Binding to Membrane Suspensions: Membrane suspensions were diluted in binding buffer supplemented with 0.1% bovine serum albumin and 0.1% bacitracin to yield an optimal membrane protein concentration: ~0.02 mg/ml for human Y1 receptors, ~0.015 mg/ml for hp25a receptors, and ~0.25 mg/ml for SK-N-Be(2). […] Incubations were terminated by filtration over Whatman GF/C filters (pre-coated with 0.5% polyethyleneimine and air-dried before use). […] Binding data were analyzed using nonlinear regression and statistical techniques available in the GraphPAD InPlot package (San Diego, Calif.).

human Y4 receptor [7] = target: T2, human Y4 receptor; assay: 125I-PYY displacement, COS-7 membranes; remark: listed apart in the source
human Y1 receptor [8] = target: T1, human Y1 receptor; assay: 125I-PYY displacement, COS-7 membranes; remark: listed apart in the source
Method: as §2, §3

Binder | Ki (human Y4 receptor [2]) | Ki (rat Y4 receptor) | EC50, inhibition of forskolin-stimulated cAMP accumulation, LM(tk-) cells (human Y4 receptor [4]) | Ki (human Y4 receptor [5]) | also measured
APLEPMYPGDYATHEQRAQYETQLRRYINTLTRPRY-NH2 (peptide, UniProt P06303 30-65, looked up, mature; also called rat PP) [PP, rat] | 0.18 nM | 0.2 nM | – | – | Ki (human Y1 receptor [1]): 460 nM; Ki (human Y4 receptor [3]): 0.18 nM
LTRPRY-NH2 (peptide, UniProt P01298 60-65, looked up, range 60-65; also called human PP31-36) [PP31-36, human] | 350 nM | 20 nM | 89000 nM | > 10000 nM | Ki (human Y4 receptor [3]): 350 nM
B1 | – | – | 20 nM | – | –
B2 | – | – | – | – | Ki (human Y4 receptor [6]): 47 nM
TPEQMAQYAADLRRYINMLTRPRY-NH2 (peptide, UniProt P01298 42-65, looked up, range 13-36) [PP13-36, human] | 39 nM | – | 580 nM | 39 nM | –
APLEPVYPGDNATPEQMAQYAADLRRYINMLTRPRY-NH2 (peptide, UniProt P01298 30-65, looked up, mature; also called human PP; PP, human) [human pancreatic polypeptide] | – | 0.12 nM | 0.09 nM | – | Ki (human Y4 receptor [7]): 0.02 nM
APLEPEYPGDNATPEQMAQYAAELRRYINMLTRPRY-NH2 (peptide, UniProt P01302 30-65, looked up, mature; also called bovine PP) [PP, bovine] | 0.05 nM | 0.15 nM | – | – | Ki (human Y1 receptor [1]): 240 nM; Ki (human Y4 receptor [3]): 0.05 nM
APLEPVYPGDNATPEQMAQYAADLRRYINMITRQRY-NH2 (peptide, UniProt P01298 30-65, looked up, mature) [[Ile^31, Gln^34]PP, human] | 0.09 nM | – | 0.27 nM | 0.09 nM | –
YINMLTRPRY-NH2 (peptide, UniProt P01298 56-65, looked up, range 27-36) [PP27-36, human] | – | – | 3500 nM | > 88 nM | –
B3 | 4000 nM | – | – | – | –
PLEPVYPGDNATPEQMAQYAADLRRYINMLTRPRY-NH2 (peptide, UniProt P01298 31-65, looked up) [PP2-36, human] | – | – | 0.08 nM | – | –
B4 | – | – | 47 nM | – | Ki (human Y1 receptor [1]): 0.19 nM; Ki (human Y1 receptor [8]): 0.085 nM; Ki (human Y4 receptor [6]): 0.62 nM
